Marks after values point to notes of the source that are not given here. One block for each substance: values may come before it.
Columns and labels:
GALR2 [1] = molecular target: T1, GALR2 (Homo sapiens, UniProt O43603); assay: β-arrestin recruitment, PathHunter CHO-K1 GALR2 cells; type: cell-based; details: Table 2; mean +/− standard deviation, n ≥ 3
T1 sequence (O43603 1-387): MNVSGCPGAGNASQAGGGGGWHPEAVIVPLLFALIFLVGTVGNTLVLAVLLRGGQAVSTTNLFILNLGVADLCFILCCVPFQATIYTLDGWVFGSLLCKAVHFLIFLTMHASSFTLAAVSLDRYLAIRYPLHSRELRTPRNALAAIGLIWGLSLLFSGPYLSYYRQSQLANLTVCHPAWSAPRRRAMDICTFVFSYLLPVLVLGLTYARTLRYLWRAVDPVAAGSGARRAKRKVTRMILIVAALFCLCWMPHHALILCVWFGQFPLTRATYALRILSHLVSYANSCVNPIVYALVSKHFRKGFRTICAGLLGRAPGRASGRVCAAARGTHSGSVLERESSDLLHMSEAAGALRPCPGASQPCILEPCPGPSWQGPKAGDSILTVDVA
Protocol: Ligands were prepared at half log dilutions using cell plating reagent 2. 5 μl of each ligand was added to cells and plates incubated at 37° C. for 90 minutes. DiscoverX PathHunter detection kit (DiscoverX, USA) was added to cells as described my manufacturer's guidelines and plates incubated for 60 minutes at room temperature in the dark. Chemiluminescent signal was measured using the PHERAstar FS (BMG, Germany).

GALR3 = molecular target: T2, GALR3 (Homo sapiens, UniProt O60755); assay: Luciferase reporter gene assay (SRE), HEK293 Gqi cells; type: cell-based
T2 construct: expressed in transfected cells; host or cells: genetically modified HEK293 Gqi cells, transient
T2 sequence (O60755 1-368): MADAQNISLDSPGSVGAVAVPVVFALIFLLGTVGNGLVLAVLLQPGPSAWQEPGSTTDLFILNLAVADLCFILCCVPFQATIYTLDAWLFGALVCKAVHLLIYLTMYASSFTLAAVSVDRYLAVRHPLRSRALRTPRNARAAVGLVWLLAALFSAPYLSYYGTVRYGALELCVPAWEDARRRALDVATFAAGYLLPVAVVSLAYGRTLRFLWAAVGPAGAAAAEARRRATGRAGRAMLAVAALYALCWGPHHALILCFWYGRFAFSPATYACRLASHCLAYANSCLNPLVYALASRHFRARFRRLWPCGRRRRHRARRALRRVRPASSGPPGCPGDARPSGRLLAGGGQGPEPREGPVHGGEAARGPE
Protocol: GalR3 activity was measured, alongside GalR1 and GalR2, using a luciferase reporter assay. A reporter plasmid and a receptor plasmid, were transiently transfected into the target cell line. The reporter plasmid contains a serum response element (SRE) or a nuclear factor of activated T-cells response element (NFAT-RE) which is coupled to a luciferase transcript and induces expression of the luciferase upon a specific G-protein (Gai uses SRE; Gaq uses NFAT-RE) activation. The target receptor is constantly expressed after cell transfection. For GALR1 and GALR3 screening, genetically modified HEK293 Gqi cells were transiently transfected with the SRE reporter and the receptor (GALR1 and GALR3) plasmids. For GALR2 screening, HEK293 cells were transiently transfected with the NFAT-RE reporter and the receptor (GALR2) plasmid. […] The luciferase activity was analyzed with the Bright-Glo Luciferase Assay (Promega) in an EnSpire plate reader.
Therefore, to measure activity at the GalR3 receptor a reporter gene assay was used. In this system MAP/ERK signalling is used to measure receptor activity. Activation of Gqi coupled receptors leads to downstream activation of ERK1/2. The activated ERK translocates to the nucleus where it phosphorylates and activates transcription factors, which lead to the binding of Serum response element (SRE). In this assay SRE activation induces expression of a luciferase reporter gene. […] To ensure this effect was not an artifact of the reporter gene assay, GalR1 and GalR2 reporter assays (using SRE and NFAT-RE respectively) were also run.

mouse GalR2 = molecular target: T3, mouse GalR2 (Mus musculus, UniProt O88854); assay: Calcium assay at orthologue receptor; type: cell-based; details: Table 8; Calcium assays; mean +/− standard deviation
T3 sequence (O88854 1-371): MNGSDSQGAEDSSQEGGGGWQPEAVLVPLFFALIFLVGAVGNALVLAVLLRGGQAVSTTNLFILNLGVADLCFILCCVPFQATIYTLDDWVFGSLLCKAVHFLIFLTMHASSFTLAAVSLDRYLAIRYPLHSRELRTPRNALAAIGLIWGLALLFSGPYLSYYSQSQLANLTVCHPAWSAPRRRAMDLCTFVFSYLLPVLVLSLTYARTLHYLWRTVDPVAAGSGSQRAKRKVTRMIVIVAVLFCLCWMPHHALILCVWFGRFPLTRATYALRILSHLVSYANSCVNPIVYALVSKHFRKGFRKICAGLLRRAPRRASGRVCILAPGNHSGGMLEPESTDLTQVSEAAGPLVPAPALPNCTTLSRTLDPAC
Text: (§1) These species were chosen as they represent potential downstream in vivo models to be used. Within native galanin amino acid residues 1-15 are conserved across species, we would therefore expect the Gal FC fusions comprising amino acids 2 to 13 to retain GalR2 activity in these species. Calcium imaging was used to define receptor activity.

rat GalR2 = molecular target: T4, rat GalR2 (Rattus norvegicus, UniProt O08726); assay: Calcium assay at orthologue receptor; type: cell-based; details: Table 8; Calcium assays; mean +/− standard deviation
T4 sequence (O08726 1-372): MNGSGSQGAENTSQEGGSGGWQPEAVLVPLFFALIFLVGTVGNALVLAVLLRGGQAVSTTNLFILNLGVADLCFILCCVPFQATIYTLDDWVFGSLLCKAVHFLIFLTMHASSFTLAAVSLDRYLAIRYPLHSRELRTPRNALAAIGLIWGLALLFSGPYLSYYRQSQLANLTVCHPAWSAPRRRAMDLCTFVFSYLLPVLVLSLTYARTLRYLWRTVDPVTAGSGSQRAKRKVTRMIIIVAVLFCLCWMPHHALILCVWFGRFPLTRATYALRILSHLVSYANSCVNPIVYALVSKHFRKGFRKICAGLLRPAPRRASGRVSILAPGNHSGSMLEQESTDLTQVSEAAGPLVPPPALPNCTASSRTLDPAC
Text: These species were chosen as they represent potential downstream in vivo models to be used. […] Calcium imaging was used to define receptor activity.

cynomolgus GalR2 = assay: Calcium assay at orthologue receptor; type: cell-based, Macaca fascicularis; details: Table 8; Calcium assays; mean +/− standard deviation
Text: as §1

GALR2 [2] = molecular target: T1, GALR2; assay: Calcium assay, CHO GalR2 cells (FLIPR); details: mean +/− standard deviation
Protocol: CHO GalR2 cells were plated at 10,000 cells per well in black clear bottom plates (corning, USA) and incubated overnight at 37° C. with 5% CO2. […] Ligands were prepared at a 5× concentration and added to cells using the FLIPR (Molecular Devices, USA). Baseline was typically 20 seconds before ligand addition. […] For analysis, fluorescence was normalised to pre-addition baseline and peak fluorescence used for all quantification.
In brief, a panel of functional cell-based microtiter-plate assays were developed using recombinant GalR1 and GalR2 receptors stably expressed in CHO cells. […] Nominally this equated to 10 serial (~3fold) dilutions with highest concentrations of 10-1 μM as appropriate.
In addition to generating both potency and efficacy estimates, the latter being expressed relative to native galanin, both G-protein and non-G-Protein signalling pathways were measured.

GALR2 [3] = molecular target: T1, GALR2; assay: Radioligand binding, [125I]galanin displacement on CHO GalR2 membranes; parameters: expressed in transfected cells; host or cells: CHO (Flp-In, pcDNA5/FRT); details: recombinant GalR2 membranes, FIG. 3
Protocol: Cell membrane homogenates (4 μg protein—from CHO cells expressing the GalR2 receptor) were incubated for 120 minutes at 22° C. with 0.05 nM [^125I] galanin in the absence or presence of test compound in a buffer containing 25 mM Tris-HCl (pH 7.4, 10 mM MgCl2 and 0.5% BSA. Non-specific binding was determined in the presence of 1 μM porcine galanin. Following incubation, samples were filtered rapidly under vacuum through glass fiber filters (GF/B, Packard) pre-soaked with 0.3% PEI and rinsed several times with ice cold 50 mM Tris-HCl using a 96 sample cell harvester (Unifilter, Packard). The filters are dried then counted for radioactivity in a scintillation counter (Topcount, Packard) using a scintillation cocktail (Microscint 0), Packard). The results are expressed as a percent inhibition of the control radioligand specific binding. The standard reference compound is porcine galanin which is tested in each experiment at several concentrations to obtain a competition curve from which its IC50 is generated.
Briefly, cell overexpressing recombinant GalR2 were used to for crude membrane preparations. Competition style binding assays were then used to monitor displacement of [125I]-Galanin using a range of concentrations of Gal-FC fusion. After a period of incubation data were expressed relative the maximum specific Galanin bound.

GalR1 = molecular target: T5, GalR1 (Homo sapiens, UniProt P47211); assay: Ala scanning of Gal2-13 peptides, activity at GalR1; type: cell-based; details: peptides vs Gal2-13, FIG. 5
T5 sequence (P47211 1-349): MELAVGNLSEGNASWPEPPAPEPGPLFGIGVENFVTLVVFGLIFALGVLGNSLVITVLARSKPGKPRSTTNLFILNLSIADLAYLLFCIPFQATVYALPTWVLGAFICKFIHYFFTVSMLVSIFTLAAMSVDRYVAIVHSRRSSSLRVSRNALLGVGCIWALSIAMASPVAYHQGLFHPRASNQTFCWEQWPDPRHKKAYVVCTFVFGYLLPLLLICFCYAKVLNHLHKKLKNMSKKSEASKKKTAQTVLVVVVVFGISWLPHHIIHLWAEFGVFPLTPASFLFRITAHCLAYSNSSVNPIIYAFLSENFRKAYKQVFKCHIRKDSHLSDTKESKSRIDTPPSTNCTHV
Text: Replacement of residues 2, 3, 5, 6, 9, 10, 11, 12 (corresponding to W, T, L, S, Y, L, L, G) led to a significant decrease in activity at GalR2 (FIG. 5). Replacement of residues 4, 8, 13 (corresponding to N, G, P) caused no decrease in activity. […] Of note, none of the substitutions increased GalR2 or GalR1 agonistic activity.

Substance: Gal2-12FC: galanin 2-12, AEAAAKEAAAKA linker, human IgG1 FC; SEQ ID NO: 25
GalR2 Beta Arrestin, mean pEC50 (GALR2 [1]): 7.6 +/− 0.2*
activity at GalR3 (in words) (GALR3): no measurable activity
Mouse GalR2 activity (mouse GalR2): 6.8 +/− 0.1
Rat GalR2 activity (rat GalR2): 6.6 +/− 0.4
Cynomolgus GalR2 activity (cynomolgus GalR2): 7.7 +/− 0.4
GalR2 Calcium, mean pEC50 (GALR2 [2]; Table 2, n ≥ 3): 6.3 +/− 0.3
GalR2 activity (calcium assay), warhead length (GALR2 [2]; Table 6, highest concentration tested 10 μM): 6.6 +/− 0.0
pIC50, displacement of [125I]-Galanin binding (GALR2 [3]): 7.24

effect of Ala substitution on GalR1 activity (GalR1): reduced GalR1 activity
Substance: Gal2-13ala8: ala scanning peptide WTLNSAAYLLGP, SEQ ID NO: 43

Reference: patent US20260209301A1, “Galanin-2 Receptor Agonists” (LIFEARC, priority 2022, published 2026)
